Each block holds one substance with its values, some of them ahead of it.
How the values were obtained:
[1] = target: hCD81 LEL mutant C4C9 (Ala134Cys/Lys144Cys and Val135Cys/Ser168Cys) (human) (UniProt P60033); assay: ELISA; M38 coated at 5 µg/mL, CD81 LEL variant at 1.666667 µg/ml, anti-his-HRP
[2] = target: wild-type human CD81 LEL (human) (UniProt P60033); assay: as above
[3] = target: hCD81 LEL mutant C4C9 (Ala134Cys/Lys144Cys and Val135Cys/Ser168Cys) (human) (UniProt P60033); assay: ELISA; M38 coated at 5 µg/mL, CD81 LEL variant at 0.020576 µg/ml, anti-his-HRP
[4] = target: wild-type human CD81 LEL (human) (UniProt P60033); assay: as above
[5] = target: hCD81 LEL mutant C4C9 (Ala134Cys/Lys144Cys and Val135Cys/Ser168Cys) (human) (UniProt P60033); assay: ELISA; M38 coated at 5 µg/mL, CD81 LEL variant at 0.185185 µg/ml, anti-his-HRP
[6] = target: wild-type human CD81 LEL (human) (UniProt P60033); assay: as above
[7] = target: hCD81 LEL mutant C4C9 (Ala134Cys/Lys144Cys and Val135Cys/Ser168Cys) (human) (UniProt P60033); assay: ELISA; M38 coated at 5 µg/mL, CD81 LEL variant at 0.061728 µg/ml, anti-his-HRP
[8] = target: wild-type human CD81 LEL (human) (UniProt P60033); assay: as above
[9] = target: hCD81 LEL mutant C4C9 (Ala134Cys/Lys144Cys and Val135Cys/Ser168Cys) (human) (UniProt P60033); assay: ELISA; M38 coated at 5 µg/mL, CD81 LEL variant at 5 µg/ml, anti-his-HRP
[10] = target: wild-type human CD81 LEL (human) (UniProt P60033); assay: as above
[11] = target: wild-type human CD81 LEL (human) (UniProt P60033); assay: HEK293-6E cell display flow cytometry; M38 10 µg/ml + anti-mouse F(ab)2-Alexa Fluor 555; secondary only 8.52
[12] = target: hCD81 LEL mutant C4C9 (Ala134Cys/Lys144Cys and Val135Cys/Ser168Cys) (human) (UniProt P60033); assay: ELISA; M38 coated at 5 µg/mL, CD81 LEL variant at 0.006859 µg/ml, anti-his-HRP
[13] = target: wild-type human CD81 LEL (human) (UniProt P60033); assay: as above
[14] = target: hCD81 LEL mutant C4C9 (Ala134Cys/Lys144Cys and Val135Cys/Ser168Cys) (human) (UniProt P60033); assay: ELISA; M38 coated at 5 µg/mL, CD81 LEL variant at 0.002286 µg/ml, anti-his-HRP
[15] = target: wild-type human CD81 LEL (human) (UniProt P60033); assay: as above
[16] = target: hCD81 LEL mutant C4C9 (Ala134Cys/Lys144Cys and Val135Cys/Ser168Cys) (human) (UniProt P60033); assay: ELISA; M38 coated at 5 µg/mL, CD81 LEL variant at 0.555556 µg/ml, anti-his-HRP
[17] = target: wild-type human CD81 LEL (human) (UniProt P60033); assay: as above
[18] = target: wild-type human CD9 LEL (human) (UniProt P21926); assay: yeast display flow cytometry; MEM-61 10 µg/ml + goat anti-mouse (Fab′)2-Alexa Fluor 555; induction at 37 °C; secondary only 4.21
Chain of wild-type human CD9 LEL (human) (P21926 113-192 limits assumed): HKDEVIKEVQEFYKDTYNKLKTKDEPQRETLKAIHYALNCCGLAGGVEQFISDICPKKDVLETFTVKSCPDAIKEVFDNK

[19] = target: wild-type human CD9 LEL (human) (UniProt P21926); assay: yeast display flow cytometry; MEM-61 10 µg/ml + goat anti-mouse (Fab′)2-Alexa Fluor 555; induction at 20 °C; secondary only 1.14
[20] = target: streptavidin-Alexafluor 647 (UniProt P22629); assay: yeast display flow cytometry; secondary reagent only
Chain of streptavidin-Alexafluor 647 (P22629 37-163 limits assumed): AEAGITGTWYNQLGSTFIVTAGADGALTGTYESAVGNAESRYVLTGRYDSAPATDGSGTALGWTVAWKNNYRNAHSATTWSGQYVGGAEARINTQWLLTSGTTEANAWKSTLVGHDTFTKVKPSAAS

Chain of wild-type human CD81 LEL (human) (P60033 113-201 limits assumed): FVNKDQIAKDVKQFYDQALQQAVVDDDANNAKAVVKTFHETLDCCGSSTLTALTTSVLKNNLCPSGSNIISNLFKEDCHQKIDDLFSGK
Chain of hCD81 LEL mutant C4C9 (Ala134Cys/Lys144Cys and Val135Cys/Ser168Cys) (human) (P60033 114-202 A134C/V135C/K144C/S168C): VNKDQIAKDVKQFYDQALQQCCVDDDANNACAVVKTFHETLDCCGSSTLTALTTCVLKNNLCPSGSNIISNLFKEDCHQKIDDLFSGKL

- A 450/620 [1]: 3.82
- A 450/620 [2]: 3.69
- A 450/620 [3]: 1.98
- A 450/620 [4]: 1.89
- A 450/620 [5]: 3.69
- A 450/620 [6]: 3.68
- A 450/620 [7]: 3.46
- A 450/620 [8]: 3.53
- A 450/620 [9]: 3.83
- A 450/620 [10]: 3.97
- MFI [11]: 83.8
- A 450/620 [12]: 0.75
- A 450/620 [13]: 0.616
- A 450/620 [14]: 0.187
- A 450/620 [15]: 0.177
- A 450/620 [16]: 3.73
- A 450/620 [17]: 3.63
Substance: anti-hCD81 M38 antibody

- percentage of positive yeast cells [18]: 26.2%
- percentage of positive yeast cells [19]: 46.4%
Substance: anti-CD9 specific antibody MEM-61

- median fluorescence [20]: 28.3
Substance: wild-type human CD81 LEL (from UniProt P60033 113-201)
